Reference: patent US20060057146A1

Assays:
[1] = biological target: recombinant ED-B domain of fibronectin (UniProt P02751); assay: 125I-labelled antibody on ED-B Sepharose column, bound against unbound radioactivity, before injection
[2] = biological target: recombinant ED-B domain of fibronectin (UniProt P02751); assay: 125I-labelled antibody in mouse plasma 24 h after i.v. injection, ED-B Sepharose column
[3] = biological target: recombinant ED-B domain of fibronectin (UniProt P02751); assay: 125I-labelled antibody in mouse plasma 144 h after i.v. injection, ED-B Sepharose column
[4] = biological target: recombinant ED-B domain of fibronectin (UniProt P02751); assay: 125I-labelled antibody in mouse plasma 6 h after i.v. injection, ED-B Sepharose column
[5] = biological target: recombinant ED-B domain of fibronectin (UniProt P02751); assay: 125I-labelled antibody in mouse plasma 3 h after i.v. injection, ED-B Sepharose column
[6] = biological target: recombinant ED-B domain of fibronectin (UniProt P02751); assay: 125I-labelled antibody in mouse plasma 72 h after i.v. injection, ED-B Sepharose column
[7] = biological target: recombinant ED-B domain of fibronectin (UniProt P02751); assay: 125I-labelled antibody in mouse plasma 48 h after i.v. injection, ED-B Sepharose column

UniProt P02751, sequence (P02751 1266-1356 limits assumed): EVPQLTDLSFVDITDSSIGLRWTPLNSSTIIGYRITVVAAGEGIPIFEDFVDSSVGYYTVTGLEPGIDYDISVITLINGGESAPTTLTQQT
scFv(L19), sequence (VH): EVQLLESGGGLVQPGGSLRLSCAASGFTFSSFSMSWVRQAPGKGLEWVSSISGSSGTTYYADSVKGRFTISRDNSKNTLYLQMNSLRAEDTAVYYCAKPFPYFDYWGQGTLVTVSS
scFv(L19), sequence (VL): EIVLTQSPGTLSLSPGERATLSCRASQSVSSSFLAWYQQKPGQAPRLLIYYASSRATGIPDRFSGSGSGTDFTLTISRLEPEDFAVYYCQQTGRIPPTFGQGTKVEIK

Row | immunoreactivity (percentage bound to ED-B Sepharose) [1] | Immunoreactivity (I), % of the value before i.v. injection [2] | Immunoreactivity (I), % of the value before i.v. injection [3] | Immunoreactivity (I), % of the value before i.v. injection [4] | Immunoreactivity (I), % of the value before i.v. injection [5] | Immunoreactivity (I), % of the value before i.v. injection [6] | Immunoreactivity (I), % of the value before i.v. injection [7] | Substance
1 | > 90% | – | – | – | – | – | – | L19 small immunoprotein (L19-SIP) (from UniProt P01854 319-426)
2 | > 90% | 27% | 4% | 32% | 36% | 9% | 14% | scFv(L19)
